Source: patent US10570379B2, “Polypeptides for carbon-carbon bond formation and uses thereof” (INVISTA North America S.à.r.l., priority 2015, dated 2020)

What was measured:
[1] = Screen for dual transferase/ketothiolase activity with acetyl-CoA and sodium acrylate, LC-MS detection; type: biochemical; conditions: for ketothiol-product: 3-oxopent-4-enoyl-CoA via thiolase activity; for thiol-product: propenoyl-CoA via transferase activity
Experimental: (§1) Acetyl-CoA was used at a final concentration of 1.5 mM and 30 mM of the substrate being studied (e.g. carboxylic acid salts, such as sodium acrylate) or 1.5 mM of propionyl-CoA in 50 mM Hepes buffer (pH 7.5). The reaction was started by addition of 0.5 mg/mL of YdiF pure protein or mutants to a final volume of 250 μL and incubated for 1 to 10 hours at 30° C.
Two controls were made from similar mixture except that the enzymes were inactivated by heating-up at 95° C. for 20 min or they were replaced by Buffer C.
(§2) All samples were prepared in triplicate and spun down at 15000 g for 20 min at 4° C. Detection of the thiol product (e.g. acryloyl-CoA) synthesized from CoA-transferase activity and the keto-thiol product (e.g. 3-oxopent-4-enoyl-CoA) due to putative thiolase activity of YdiF (or homologues) was carried out by Liquid Chromatography coupled to a qTof-Mass spectrometry (in positive mode), using a C18 column (Zorbax Eclipse C18, 2.1×50 mm, 1.8μ, Agilent, code product: 959757-902) and a gradient of 10 mM ammonium acetate and acetonitrile as mobile phase.
YdiF from Clostridium propionicum belongs to the enzymatic class EC2.8.3.8. Other members of this enzyme class with similar structural features to YdiF, as well as proteins with a CoA-transferase activity from close-by enzymatic classes, were screened for dual transferase/ketothiolase activity as described in Example 2. Acetyl-CoA and sodium acrylate were provided as substrates. LC-MS was used to detect the thiol-product (propenoyl-CoA) synthesized via the transferase activity and the ketothiol-product (3-oxopent-4-enoyl-CoA) synthesized via the thiolase activity, as described in Example 2.

[2] = Substrate specificity, 4-Hydroxybutyrate with acetyl-CoA, LC-MS; type: biochemical; conditions: substrate 4-Hydroxybutyrate + acetyl-CoA
Experimental: as §1, §2
(§3) To study the substrate specificity of YdiF, several commercially available substrates were provided to YdiF (and homologues) in combination with acetyl-CoA, as described in Example 2. LC-MS was used to detect the thiol-product synthesized via the transferase activity and the ketothiol-product synthesized via the thiolase activity.
4-Hydroxybutyrate was used as a substrate with acetyl-CoA for protein 244 and the corresponding products from the transferase and ketothiolase activities of protein 244 were detected.

[3] = Solubility of the expressed protein (Table 3); conditions: protein expressed in E. coli
Experimental: From a fresh LB plate containing the desired clone transformant, one colony (or small scratch) was picked to inoculate 25 mL of LB supplemented with the relevant antibiotic and the pre-culture was incubated overnight at 37° C., 230 rpm. The following morning, the TB auto-induced medium (Merck/Code product: 71491-5) was prepared by mixing 60 g TB/L supplemented with 10 mL Glycerol/L of TB and microwaved during 3+2 minutes at full power. The TB was cooled down before use and splitting it in sterile flasks. Then, the pre-culture incubated overnight in LB was centrifuged and the supernatant discarded. The obtained pellet was resuspended with 5 mL of freshly prepared TB medium and used to inoculate 500 mL of TB dispensed in sterile flasks and supplemented with the appropriate antibiotic. The inoculated medium was incubated at 28° C. for at least 20 h, 230 rpm.
The culture was centrifuged at least at 3000 g/20 min/4° C. and the pellet used immediately or stored at −80′C.
The pellets (fresh or thawed) were resuspended in 10 to 20 mL of Buffer A (50 mM Hepes+150 mM NaCl+40 mM Imidazole+5% Glycerol−pH 7.5). The resuspended cells were then sonicated in ice for, 5 min at 37% Amplitude with 5″ ON and 15″ OFF sonication pulse. The sonicated cells were centrifuged for at least 20 min at 15500 g and 4° C. The supernatant containing the soluble fraction of proteins was recovered, filtered using 0.45 or 0.2 um filters, and used for His-trap protein purification.

[4] = Substrate specificity, propionate with acetyl-CoA, LC-MS; type: biochemical
Experimental: as §1, §2, §3

[5] = Substrate specificity, butyrate with acetyl-CoA, LC-MS; type: biochemical
Experimental: as §1, §2, §3

[6] = Substrate specificity, 3-butenoate with acetyl-CoA, LC-MS; type: biochemical; conditions: substrate 3-butenoate + acetyl-CoA
Experimental: as §1, §2, §3

[7] = Substrate specificity, 4-pentenoate with acetyl-CoA, LC-MS; type: biochemical; conditions: substrate 4-pentenoate + acetyl-CoA
Experimental: as §1, §2, §3

[8] = Substrate specificity, 6-heptenoate with acetyl-CoA, LC-MS; type: biochemical; conditions: substrate 6-heptenoate + acetyl-CoA
Experimental: as §1, §2, §3

[9] = Substrate specificity, 2-hexenoate with acetyl-CoA, LC-MS; type: biochemical; conditions: substrate 2-hexenoate + acetyl-CoA
Experimental: as §1, §2, §3

Molecule	ketothiol-product [1]	thiol-product [1]	Solubility [3]	also measured
Bdigene 0244: 4-Hydroxybutyrate-CoA transferase from Clostridium aminobutyricum, Uniprot Q9RM86, SEQ ID NO: 19 (protein, listed as Clostridium aminobutyricum) MDWKKIYEDRTCTADEAVKSIKSGDRVLFAHCVAEPPVLVEAMVANAAAYKNVTVSHMVTLGKGEYSKPEYKENFTFEGWFTSPSTRGSIAEGHGQFVPVFFHEVPSLIRKDIFHVDVFMVMVSPPDHNGFCCVGVSSDYTMQAIKSAKIVLAEVNDQVPVVYGDTFVHVSEIDKFVETSHPLPEIGLPKIGEVEAAIGKHCASLIEDGSTLQLGIGAIPDAVLSQLKDKKHLGIHSEMISDGVVDLYEAGVIDCSQKSIDKGKMAITFLMGTKRLYDFAANNPKVELKPVDYINHPSVVAQCSKMVCINACLQVDFMGQIVSDSIGTKQFSGVGGQVDFVRGASMSIDGKGKAIIAMPSVAKKKDGSMISKIVPFIDHGAAVTTSRNDADYVVTEYGIAEMKGKSLQDRARALINIAHPDFKDELKAEFEKRFNAAF	✓	✓	✓	ketothiol-product ([2]; listed as Protein 244): ✓; thiol-product ([2]; listed as Protein 244): ✓; ketothiol-product ([2]; listed as protein 244): detected; thiol-product ([2]; listed as protein 244): detected
Bdigene 272: Acetate CoA-transferase YdiF from Peptostreptococcaceae bacterium oral taxon, Uniprot U2L5C9, SEQ ID NO: 5 (protein) MAKFVTLEEAVSVVKNGDTVATTGFVQVANPEALEWALGKRFEETKEPRDLTLFYCAGQGDGDCRAVNHFAKEGMLKRVVAGHFNMAPLLRQFISDNKCEAYNVPQGVLCNMVRDIAAKKPGVISHVGLNTFADPRIEGCKINLVTKEDIVELMMINGEEKLFYKTFPLTIAFIKGTYADERGNVTLENEGIPSEATSIAQSVHNCGGKVIVQVEKVVAAGTLDPKLVKVPGIYVDYIVQVDDPSMRQQCYGVDYEPELAGNVYIPLSDIPLKTPLNERKIIARRGAFEIRKGNVGNLGIGVPEVVSEVVSEEGITDWLTLTVEVGPVGGSPQGKNRFGTAINAEAILDQPYQFDFYDGGGLDIAYLGLAQADAKGNLNVSKFGDRVAGCGGFIDISQNSKAVVFCGSFTAGGLKVEVNDGKLNIVQEGKVKKFVNKVQQITFSGEYARKTGQRVFYVTERAVFQMKPEGLTLIEIAPGVDLEKDVLNQMEFKPLIAKDLKLMDERIFRPGPMGIKNDN	✓	✓	✓	
Bdigene 273: Acetate CoA-transferase YdiF from Firmicutes bacterium CAG, Uniprot R5ADR5, SEQ ID NO: 6 (protein) MARQVKVITAAEAAALIKNGDTVTTSGFVASAIPEALDRAVEERFLATGEPRDITYVYCGSQGNKDGRGAEHFAHEGLLKRYIAGHWATVPALQKMALENKMEAYNVSQGALCHLFRDIAAHRPGCFTKVGLGTFIDPRNGGGKVNDVTKEDIIELVNIKGQDYLFYPAFPINVALIRGTYADESGNISFEKEVSPLEGTSVCQAVKNSGGIVVVQVEKLVKAGTLDPRLVKVPGIYVDYVVVADPKDHQQTLDCDYDPALSGEMRNPDVAPEPLPLSAKKIIGRRGAVELEKDVAVNLGVGAPEYVASVANEEGIGDFMTLTVEGGAVGGVPAGGIRFGSAYNADALLDQGYQFDFYDGGGLDLCYLGLAECDPHGSINVSRFGPRIAGCGGFINITQCTPKVFFCGTFTAGGLKVKVEDGKVVIAQEGKNKKFVKSVEQVTFNGDIANKNGQHVMYITERCVFVLKEDGLHLTEIAPGIDLQTQILDQMEFEPIIDRNADGSITLMDAKLFADGLMGLKEMKEGK	✓	✓	✓	
Bdigene 0345: Succinyl-CoA--D-citramalate CoA-transferase from Chloroflexus aurantiacus, Uniprot A9WGE3 (protein, UniProt A9WGE3 1-402, looked up) Succinyl-CoA--D-citramalate …: MSSQRPPRPLDDVRVLELGAFLAGPFCGQLLADFGAEVIKVEPPGKGDPMREWGRHRYKGRTLWWPVLARNKKSITIDLRTPEGQALVKRLVPHVDMVLENFRPGTLEEWGLGWEELHALNPGLIMIRVSGFGQTGPYRDKAGFGSIGEAMGGIRAITGFPDRPPTRIGISIGDSLAATFAALGALVALHQRQRSGQGQVVDIGIYEGVLALMESMIPEYQLTGHIRERTGNILPNVAPSNIYPTADGSWFVIGANADTIFTRLAQAMGQPELATDPRFATHQARGEHQAELDDLIAAWTLNYTADQLQVMMDEYGVPAGRIYTAKEMLSDPHFIARQSIIGVHDPDLGEIKMQNVVPRLSATPGGVDWTGPALGQHNREIFTDLLGLTEDDLAMLQAKRVI	✓	✓	✓	
Bdigene 274: Acetate CoA-transferase YdiF from Megasphaera elsdenii DSM 20460, Uniprot G0VND6, SEQ ID NO: 7 (protein, listed as Megasphaera elsdenii) MRKVEIITAEQAAQLVKDNDTITSIGFVSSAHPEALTKALEKRFLDTNTPQNLTYIYAGSQGKRDGRAAEHLAHTGLLKRAIIGHWQTVPAIGKLAVENKIEAYNFSQGTLVHWFRALAGHKLGVFTDIGLETFLDPRQLGGKLNDVTKEDLVKLIEVDGHEQLFYPTFPVNVAFLRGTYADESGNITMDEEIGPFESTSVAQAVHNCGGKVVVQVKDVVAHGSLDPRMVKIPGIYVDYVVVAAPEDHQQTYDCEYDPSLSGEHRAPEGATDAALPMSAKKIIGRRGALELTENAVVNLGVGAPEYVASVAGEEGIADTITLTVEGGAIGGVPQGGARFGSSRNADAIIDHTYQFDFYDGGGLDIAYLGLAQCDGSGNINVSKFGTNVAGCGGFPNISQQTPNVYFCGTFTAGGLKIAVEDGKVKILQEGKAKKFIKAVDQITFNGSYAARNGKHVLYITERCVFELTKEGLKLIEVAPGIDIEKDILAHMDFKPIIDNPKLMDARLFQDGPMGLKK	✓	✓	✓	
Bdigene 237: Acetate/Propionate CoA-transferase (YdiF) from Clostridium propionicum, Uniprot Q9L3F7, SEQ ID NO: 1 (protein, listed as Clostridium propionicum) MRKVPIITADEAAKLIKDGDTVTTSGFVGNAIPEALDRAVEKRFLETGEPKNITYVYCGSQGNRDGRGAEHFAHEGLLKRYIAGHWATVPALGKMAMENKMEAYNVSQGALCHLFRDIASHKPGVFTKVGIGTFIDPRNGGGKVNDITKEDIVELVEIKGQEYLFYPAFPIHVALIRGTYADESGNITFEKEVAPLEGTSVCQAVKNSGGIVVVQVERVVKAGTLDPRHVKVPGIYVDYVVVADPEDHQQSLDCEYDPALSGEHRRPEVVGEPLPLSAKKVIGRRGAIELEKDVAVNLGVGAPEYVASVADEEGIVDFMTLTAESGAIGGVPAGGVRFGASYNADALIDQGYQFDYYDGGGLDLCYLGLAECDEKGNINVSRFGPRIAGCGGFINITQNTPKVFFCGTFTAGGLKVKIEDGKVIIVQEGKQKKFLKAVEQITFNGDVALANKQQVTYITERCVFLLKEDGLHLSEIAPGIDLQTQILDVMDFAPIIDRDANGQIKLMDAALFAEGLMGLKEMKS	✓	✓		ketothiol-product [4]: ✓; thiol-product [4]: ✓; ketothiol-product [5]: ✓; thiol-product [5]: ✓; ketothiol-product [6]: ✓; thiol-product [6]: ✓; ketothiol-product [7]: ✓; thiol-product [7]: ✓; ketothiol-product [8]: ✓; thiol-product [8]: ✓; ketothiol-product [9]: ✓; thiol-product [9]: ✓
Bdigene 0344: Succinyl-CoA: acetate CoA-transferase from Acetobacter aceti, Uniprot B3EY95 (protein, UniProt B3EY95 1-505, looked up) Succinyl-CoA:acetate …: MTERIRNVALRSKVCPAETASELIKHGDVVGTSGFTGAGYPKEVPKALAQRMEAAHDRGEKYQISLITGASTGPQLDGELAKANGVYFRSPFNTDATMRNRINAGETEYFDNHLGQVAGRAVQGNYGKFNIALVEATAITEDGGIVPTSSVGNSQTFLNLAEKVIIEVNEWQNPMLEGIHDIWDGNVSGVPTRDIVPIVRADQRVGGPVLRVNPDKIAAIVRTNDRDRNAPFAAPDETAKAIAGYLLDFFGHEVKQNRLPPSLLPLQSGVGNVANAVLEGLKEGPFENLVGYSEVIQDGMLAMLDSGRMRIASASSFSLSPEAAEEINNRMDFFRSKIILRQQDVSNSPGIIRRLGCIAMNGMIEADIYGNVNSTRVMGSKMMNGIGGSGDFARSSYLSIFLSPSTAKGGKISAIVPMAAHVDHIMQDAQIFVTEQGLADLRGLSPVQRAREIISKCAHPDYRPMLQDYFDRALKNSFGKHTPHLLTEALSWHQRFIDTGTMLPS	✓	✓	✓	
